Data as given in patent US20090298167A1 (Pfizer, published 2009).

T1: human gamma common chain expressed on CHO cells (human, UniProt P31785 23-369)
T1 construct: whole, on cells; Control protein; also called human IL-2R-γ common subunit; human gamma (γ) common chain
T1 sequence (looked up): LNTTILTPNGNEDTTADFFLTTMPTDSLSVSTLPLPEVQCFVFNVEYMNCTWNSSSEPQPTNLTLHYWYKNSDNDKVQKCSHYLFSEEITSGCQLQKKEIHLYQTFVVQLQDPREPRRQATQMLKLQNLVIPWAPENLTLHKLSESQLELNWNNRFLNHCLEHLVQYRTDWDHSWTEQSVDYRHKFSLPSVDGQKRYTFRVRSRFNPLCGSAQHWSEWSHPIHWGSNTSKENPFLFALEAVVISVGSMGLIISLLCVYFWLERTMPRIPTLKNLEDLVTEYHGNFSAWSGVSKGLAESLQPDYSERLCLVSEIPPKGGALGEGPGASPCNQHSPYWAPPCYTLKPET

T2: human IL-2Rβ (human, UniProt P14784 27-239)
T2 construct: Bought
T2 sequence (looked up): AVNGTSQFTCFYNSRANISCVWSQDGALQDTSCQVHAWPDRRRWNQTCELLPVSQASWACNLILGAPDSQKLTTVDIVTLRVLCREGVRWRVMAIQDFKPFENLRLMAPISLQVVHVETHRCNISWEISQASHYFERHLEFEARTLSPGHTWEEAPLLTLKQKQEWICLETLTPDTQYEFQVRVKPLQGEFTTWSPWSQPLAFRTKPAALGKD


Columns and labels:
[1] = molecular target: T1, human gamma common chain expressed on …; test: cell ELISA on transfected CHO cells, 13 nM IgG
Procedure: (§1) A subset of binding proteins was tested for binding to rat, cynomolgus monkey, human IL-21R, or human IL-2R-γ common subunit expressed transiently on the surfaces of CHO-PA-Dukx cells. Cells were transfected 48 hr prior to the assay. On the day of the assay, cells were washed gently 5× in PBS containing 0.9 mM CaCl₂ and 0.45 mM MgCl₂ (PBS/CaMg) on an automated plate washer (Titertek, Huntsville, Ala.), and blocked for 1 hr at RT in PBS/CaMg/5% nonfat dry milk. Conditioned media from transiently expressed anti-IL-21R IgGs were serially diluted in blocking buffer and added to the cells in the blocked plates for 1 hr at RT. Cells were washed 5× with PBS/CaMg and then incubated with horseradish peroxidase-conjugated anti-human IgG for 1 hr at RT. Cells were then washed 10× in PBS/CaMg and all of the wash buffer was removed. Cells were incubated with 100 μl TMB until the color reaction reached saturation, stopped with 100 μl of 0.18 M H₂SO₄, and read at A450 on a Perkin Elmer ENVISION™ plate reader.

[2] = molecular target: T3, cynomolgus monkey IL-21R expressed on CHO cells (cynomolgus monkey); test: cell ELISA on transfected CHO cells, 13 nM IgG
T3 construct: whole, on cells
Procedure: as §1

[3] = molecular target: T4, rat IL-21R expressed on cells (rat); test: cell ELISA on transfected CHO cells, 13 nM IgG
T4 construct: whole, on cells; Transiently transfected CHO-PA-Dukx cells
Procedure: as §1

[4] = molecular target: T5, human IL-21R expressed on cells (human, UniProt Q9HBE5 20-538); test: cell ELISA on transfected CHO cells, 13 nM IgG
T5 construct: Transfected BaF3, TF1 and CHO cells; also native on primary human B and CD4+ T cells; also called hIL-21R; human IL-21R-BaF3 cells
T5 sequence (Q9HBE5 20-538 limits assumed): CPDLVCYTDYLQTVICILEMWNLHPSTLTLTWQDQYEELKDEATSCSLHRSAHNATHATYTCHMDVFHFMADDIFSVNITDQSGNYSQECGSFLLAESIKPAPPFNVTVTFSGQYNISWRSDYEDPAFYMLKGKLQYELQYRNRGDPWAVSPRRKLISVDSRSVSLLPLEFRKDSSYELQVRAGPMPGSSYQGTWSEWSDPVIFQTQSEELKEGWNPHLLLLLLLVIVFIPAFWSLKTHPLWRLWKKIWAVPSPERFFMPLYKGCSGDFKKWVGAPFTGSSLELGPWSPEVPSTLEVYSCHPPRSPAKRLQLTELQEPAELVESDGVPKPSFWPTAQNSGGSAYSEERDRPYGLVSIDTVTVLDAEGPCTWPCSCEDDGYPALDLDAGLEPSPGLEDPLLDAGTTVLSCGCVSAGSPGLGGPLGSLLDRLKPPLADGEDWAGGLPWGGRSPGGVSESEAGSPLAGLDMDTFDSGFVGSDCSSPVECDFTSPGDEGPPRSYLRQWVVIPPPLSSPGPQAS
Procedure: as §1

[5] = molecular target: T6, murine IL-21R expressed on cells (murine, UniProt Q9JHX3 20-529); test: cell-based or functional assay
T6 sequence (Q9JHX3 20-529 limits assumed): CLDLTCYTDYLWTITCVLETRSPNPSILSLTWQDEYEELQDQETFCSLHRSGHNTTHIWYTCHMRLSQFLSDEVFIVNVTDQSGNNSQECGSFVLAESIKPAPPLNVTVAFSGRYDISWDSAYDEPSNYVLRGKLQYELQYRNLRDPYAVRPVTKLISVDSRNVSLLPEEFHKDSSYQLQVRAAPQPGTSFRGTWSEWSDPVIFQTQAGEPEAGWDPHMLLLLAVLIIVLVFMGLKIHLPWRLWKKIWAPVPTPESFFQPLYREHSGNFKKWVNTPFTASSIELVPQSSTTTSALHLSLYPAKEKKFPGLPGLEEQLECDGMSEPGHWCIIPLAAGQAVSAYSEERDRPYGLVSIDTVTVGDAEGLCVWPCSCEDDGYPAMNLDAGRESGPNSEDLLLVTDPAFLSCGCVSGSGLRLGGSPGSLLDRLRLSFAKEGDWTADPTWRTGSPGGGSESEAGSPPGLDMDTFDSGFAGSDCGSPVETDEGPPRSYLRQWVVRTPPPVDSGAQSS

[6] = molecular target: T5, human IL-21R expressed on cells; test: cell-based or functional assay
[7] = molecular target: T4, rat IL-21R expressed on cells; test: cell-based or functional assay
[8] = molecular target: T5, human IL-21R expressed on cells; test: cell-based or functional assay; remark: listed apart in the source
[9] = molecular target: T6, murine IL-21R expressed on cells; test: cell-based or functional assay; remark: listed apart in the source
[10] = molecular target: T5, human IL-21R expressed on cells; test: cell-based or functional assay; remark: listed apart in the source
[11] = molecular target: T5, human IL-21R expressed on cells; test: cell-based or functional assay; remark: listed apart in the source
[12] = molecular target: T6, murine IL-21R expressed on cells; test: cell-based or functional assay; remark: listed apart in the source
[13] = molecular target: T7, human IL-13-His/FLAG (human, UniProt P35225 35-146, limits assumed); test: BIACORE: antibody captured on anti-human IgG, 50 nM analyte injected
T7 construct: Unrelated His/FLAG-tagged control; also called human IL-13-H/F
T7 sequence (P35225 35-146 limits assumed): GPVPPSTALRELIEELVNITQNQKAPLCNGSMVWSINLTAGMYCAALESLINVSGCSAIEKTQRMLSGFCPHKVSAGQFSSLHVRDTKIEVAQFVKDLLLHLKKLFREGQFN
Procedure: (§2) The specificity of binding of a subset of transiently expressed anti-IL-21R binding proteins (here antibodies) was tested on a BIACORE™ 2000 surface plasmon resonance instrument. Anti-human-IgG, anti-murine immunoglobulin antibodies, and murine IL-21R-H/F were immobilized onto a research-grade carboxymethyl-dextran chip (CM5) using standard amine coupling. The sensor chip surface was activated with EDC/NHS for 7 min at a flow rate of 20 μl/min. The first flow cell was used as reference surface to correct for bulk refractive index, matrix effects, and nonspecific binding. […] Remaining activated groups were blocked with 1.0 M ethanolamine (pH 8.0). The molecular weights of the anti-human IgG and the anti-murine IgG were both 150 kD, and the molecular weight of the IL-21R monomer was 27 kD.
(§3) Conditioned media containing anti-IL-21R antibodies and antibody controls (murine anti-human IL-2Rβ and murine anti-human IL-4R(R&D Systems, Minneapolis, Minn.); human anti-human IL-13 (Wyeth, Cambridge, Mass.)) were diluted in HBS/EP buffer supplemented with 0.2% bovine serum and injected onto all four flow cells of the BIACORE™ chip, capturing 500-700 (RU) of antibody on the species-appropriate capture antibody. Following a 5 sec washing period, 50 nM solutions of a positive control protein (murine IL-21R-H/F), two human proteins related to IL-21R (human IL-2Rβ and human sIL-4R(R&D Systems)), or an unrelated His/FLAG-tagged protein (human IL-13-H/F), were injected over the captured antibodies on the chip. The association and dissociation phases were monitored for 120 and 180 sec, respectively, followed by two 5 μl injections of glycine (pH 1.5) to regenerate a fully active capturing surface. All binding experiments were done at 25° C. in HBS/EP buffer. Blank and buffer effects were subtracted for each sensorgram using double referencing.

[14] = molecular target: T2, human IL-2Rβ; test: as above
Procedure: as §2, §3

[15] = molecular target: T8, human soluble IL-4R (human, UniProt P24394 26-231, limits assumed); test: as above
T8 construct: soluble; also called human sIL-4R
T8 sequence (P24394 26-231 limits assumed): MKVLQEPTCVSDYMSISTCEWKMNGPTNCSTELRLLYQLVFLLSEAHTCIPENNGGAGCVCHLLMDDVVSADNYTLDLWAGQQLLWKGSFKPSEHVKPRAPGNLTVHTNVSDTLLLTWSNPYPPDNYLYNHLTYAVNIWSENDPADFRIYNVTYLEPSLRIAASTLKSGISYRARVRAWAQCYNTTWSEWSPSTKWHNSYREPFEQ
Procedure: as §2, §3

Binder	A450 at 13 nM Ab in cell ELISA [1]	A450 at 13 nM Ab in cell ELISA [2]	A450 at 13 nM Ab in cell ELISA [3]	A450 at 13 nM Ab in cell ELISA [4]	Murine IL-21R-BaF3 Proliferation IC50 [5]	Human IL-21R-BaF3 Proliferation IC50 [6]	Human IL-21R-TF1 Proliferation IC50 [6]	IC50 (nM) experiment 1, rat T cell proliferation [7]	IC50 (nM) experiment 2, rat T cell proliferation [7]	Neutralization of T cell Proliferation IC50 (nM), human primary CD4+ T cells [8]	Murine IL-21R-BaF3 Neutralization IC50 [9]	Human IL-21R-BaF3 Neutralization IC50 [10]	Human IL-21R-TF1 Neutralization IC50 [10]	Neutralization of B cell proliferation IC50 [11]	Neutralization of T cell Proliferation IC50 (nM), murine primary CD8+ T cells [12]	binding result [13]	binding result [14]	binding result [15]
AbK (antibody, human IgG1, V domains shown, Full-length human IgG1 / human lambda, transient, conditioned medium; Framework limits derived; also called VH3/VL3) VH: QVQLQESGPGLVKPSETLSLTCAVSGYSISSGYYWGWIRQPPGKGLEWIGSISHTGNTYYNPPLKSRVTISVDTSKNQFSLKLSSVTAADTAVYYCARFMGFGRPEYWGQGTLVTVSS VL: SSELTQDPAVSVALGQTVRITCQGDSLRTYYASWYQQKPGQAPVLVIYGKHKRPSGIPDRFSGSSSGNTASLTITGAQAEDEADYYCVSRAVVGNPHVLFGGGTQLTVL	0.108 A450	1.34 A450	1.18 A450	1.36 A450	0.079 nM	0.98 nM	4 nM	–	–	–	–	–	–	–	–	–	–	–
AbR (antibody, human IgG1, V domains shown, Purified form: human IgG1 double-mutant (L234A, G237A); Framework limits derived; also called VH3/VL18; VH3DM/VL18) VH: QVQLQESGPGLVKPSETLSLTCAVSGYSISSGYYWGWIRQPPGKGLEWIGSISHTGNTYYNPPLKSRVTISVDTSKNQFSLKLSSVTAADTAVYYCARFMGFGRPEYWGQGTLVTVSS VL: SSELTQDPAVSVALGQTVRITCQGDSLRTYYASWYQQKPGQAPVLVIYGKHKRPSGIPDRFSGSSSGNTASLTITGAQAEDEADYYCVTRSVKGNPHVLFGGGTQLTVL	0.109 A450	1.35 A450	1.11 A450	1.33 A450	0.302 nM	0.87 nM	3.94 nM	–	–	0.04 nM	0.34 nM	0.56 nM	1.63 nM	0.22 nM	0.13 nM	no binding (tested: 50 nM)	no binding (tested: 50 nM)	no binding (tested: 50 nM)
AbP (antibody, human IgG1, V domains shown, Human IgG1 triple-mutant (L234A, L235A, G237A); Framework limits derived; also called VHP/VL20; VHPTM/VL20) VH: QVQLQESGPGLVKPSETLSLTCAVSGYSISSGYYWGWIRQPPGKGLEWIGSISHTGNTYYNPPLKSRVTISVDTSKNQFSLKLSSVTAADTAVYYCARGGGISRPEYWGQGTLVTVSS VL: SSELTQDPAVSVALGQTVRITCQGDSLRTYYASWYQQKPGQAPVLVIYGKHKRPSGIPDRFSGSSSGNTASLTITGAQAEDEADYYCVSRSAKGNPHVLFGGGTQLTVL	0.112 A450	1.31 A450	1.03 A450	1.31 A450	0.03 nM	0.75 nM	3.48 nM	–	–	0.02 nM	–	–	–	–	–	no binding (tested: 50 nM)	no binding (tested: 50 nM)	no binding (tested: 50 nM)
AbN (antibody, human IgG1, V domains shown, Full-length human IgG1 / human lambda, transient, conditioned medium; Framework limits derived; also called VH6/VL24) VH: QVQLQESGPGLVKPSETLSLTCAVSGYSISSGYYWGWIRQPPGKGLEWIGSISHTGNTYYNPPLKSRVTISVDTSKNQFSLKLSSVTAADTAVYYCARFFGFGRPEYWGQGTLVTVSS VL: SSELTQDPAVSVALGQTVRITCQGDSLRTYYASWYQQKPGQAPVLVIYGKHKRPSGIPDRFSGSSSGNTASLTITGAQAEDEADYYCIARSNKGNPHVLFGGGTQLTVL	0.136 A450	1.5 A450	0.702 A450	1.21 A450	0.435 nM	0.5 nM	1.59 nM	–	–	–	–	–	–	–	–	–	–	–

Further lines, results first:

A450 at 13 nM Ab in cell ELISA [1]	A450 at 13 nM Ab in cell ELISA [2]	A450 at 13 nM Ab in cell ELISA [3]	A450 at 13 nM Ab in cell ELISA [4]	Murine IL-21R-BaF3 Proliferation IC50 [5]	Human IL-21R-BaF3 Proliferation IC50 [6]	Human IL-21R-TF1 Proliferation IC50 [6]	IC50 (nM) experiment 1, rat T cell proliferation [7]	IC50 (nM) experiment 2, rat T cell proliferation [7]	Neutralization of T cell Proliferation IC50 (nM), human primary CD4+ T cells [8]	Murine IL-21R-BaF3 Neutralization IC50 [9]	Human IL-21R-BaF3 Neutralization IC50 [10]	Human IL-21R-TF1 Neutralization IC50 [10]	Neutralization of B cell proliferation IC50 [11]	Neutralization of T cell Proliferation IC50 (nM), murine primary CD8+ T cells [12]	binding result [13]	binding result [14]	binding result [15]	Binder
–	–	–	–	–	–	–	70.5 nM	59.2 nM	–	–	–	–	–	–	–	–	–	AbV (antibody, human IgG1, V domains shown) VH: QVQLQESGPGLVKPSETLSLTCAVSGYSISSGYYWGWIRQPPGKGLEWIGSISHTGNTYYNPPLKSRVTISVDTSKNQFSLKLSSVTAADTAVYYCARFMGFGRPEYWGQGTLVTVSS VL: SSELTQDPAVSVALGQTVRITCQGDSLRTYYASWYQQKPGQAPVLVIYGKHKRPSGIPDRFSGSSSGNTASLTITGAQAEDEADYYCVARSVVGNPHVLFGGGTQLTVL
–	–	–	–	–	–	–	159 nM	94.7 nM	–	–	–	–	–	–	–	–	–	AbW (antibody, human IgG1, V domains shown) VH: QVQLQESGPGLVKPSETLSLTCAVSGYSISSGYYWGWIRQPPGKGLEWIGSISHTGNTYYNPPLKSRVTISVDTSKNQFSLKLSSVTAADTAVYYCARFMGFGRPEYWGQGTLVTVSS VL: SSELTQDPAVSVALGQTVRITCQGDSLRTYYASWYQQKPGQAPVLVIYGKHKRPSGIPDRFSGSSSGNTASLTITGAQAEDEADYYCVTRSVKGNPHVLFGGGTQLTVL
–	–	–	–	–	–	–	–	–	1.42 nM	177 nM	1.71 nM	14 nM	1.86 nM	> 85 nM	–	–	–	parental 18A5 antibody (antibody, V domains shown) VH: QVQLQESGPGLVKTSETLSLTCAVSGYSISSGYYWGWIRQPPGKGLEWIGSISHTGNTYYNPPLKSRVTISVDTSKNQFSLKLSSVTAADTAVYYCARGGGISRPEYWGKGTLVTVSS VL: SSELTQDPPVSVALGQTVTLTCQGDSLRTYYASWYQQKSGQAPILLLYGKHKRPSGIPDRFSGSTSGDTASLTITGAQAEDEADYYCNSRDSSGNPHVLFGGGTQLTVL
